For test [1], the target named is recombinant ClfA229-545 (S. aureus clumping factor A, N2N3 domains), 6xHis tagged (Staphylococcus aureus) (UniProt Q53653).
The target of test [2] is human 17-mer C-terminal Fg γ-chain peptide (…) (human). Nature of the test: human 17-mer peptide.
Another test has as its target human fibrinogen (human) (UniProt P02671).
Test [3] has as its target human 15-mer C-terminal Fg γ-chain peptide (…) (human). Nature of the test: human 15-mer peptide.
Test [4] addresses recombinant ClfA229-545 (S. aureus clumping factor A, N2N3 domains), 6xHis tagged (Staphylococcus aureus) (UniProt Q53653). The source holds these as a separate data set.

Where two headings read alike, the source gives them in different places.

Chain of recombinant ClfA229-545 (S. aureus clumping factor A, N2N3 domains), 6xHis tagged (Staphylococcus aureus) (Q53653 229-545 limits assumed): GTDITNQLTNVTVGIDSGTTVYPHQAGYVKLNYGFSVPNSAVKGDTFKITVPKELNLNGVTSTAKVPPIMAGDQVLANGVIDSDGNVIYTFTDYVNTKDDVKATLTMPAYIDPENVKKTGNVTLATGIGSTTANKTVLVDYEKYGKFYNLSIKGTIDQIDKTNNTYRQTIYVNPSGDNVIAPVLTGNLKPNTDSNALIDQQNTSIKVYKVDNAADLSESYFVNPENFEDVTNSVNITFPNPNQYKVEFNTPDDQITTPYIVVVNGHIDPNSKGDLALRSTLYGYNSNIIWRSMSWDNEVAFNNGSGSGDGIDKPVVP
Chain of human fibrinogen (human) (P02671 20-629 limits assumed, chain 1 of 3): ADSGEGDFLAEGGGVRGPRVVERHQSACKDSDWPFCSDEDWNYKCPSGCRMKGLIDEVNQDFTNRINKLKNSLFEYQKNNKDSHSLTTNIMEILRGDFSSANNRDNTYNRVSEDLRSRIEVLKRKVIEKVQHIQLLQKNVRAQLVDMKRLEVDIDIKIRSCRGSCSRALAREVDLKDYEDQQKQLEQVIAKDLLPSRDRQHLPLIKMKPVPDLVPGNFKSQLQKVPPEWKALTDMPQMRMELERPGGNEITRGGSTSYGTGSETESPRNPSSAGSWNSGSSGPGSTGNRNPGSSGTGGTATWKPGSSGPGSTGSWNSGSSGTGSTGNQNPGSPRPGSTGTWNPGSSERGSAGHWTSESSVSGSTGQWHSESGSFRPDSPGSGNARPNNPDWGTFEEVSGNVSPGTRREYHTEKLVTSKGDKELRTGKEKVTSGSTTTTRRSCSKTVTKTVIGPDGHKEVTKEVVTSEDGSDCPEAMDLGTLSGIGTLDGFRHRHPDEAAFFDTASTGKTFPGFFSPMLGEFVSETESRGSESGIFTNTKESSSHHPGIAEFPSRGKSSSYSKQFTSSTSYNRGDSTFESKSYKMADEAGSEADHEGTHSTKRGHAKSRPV
Chain of human fibrinogen (human) (P02675 31-491 limits assumed, chain 2 of 3, further chain): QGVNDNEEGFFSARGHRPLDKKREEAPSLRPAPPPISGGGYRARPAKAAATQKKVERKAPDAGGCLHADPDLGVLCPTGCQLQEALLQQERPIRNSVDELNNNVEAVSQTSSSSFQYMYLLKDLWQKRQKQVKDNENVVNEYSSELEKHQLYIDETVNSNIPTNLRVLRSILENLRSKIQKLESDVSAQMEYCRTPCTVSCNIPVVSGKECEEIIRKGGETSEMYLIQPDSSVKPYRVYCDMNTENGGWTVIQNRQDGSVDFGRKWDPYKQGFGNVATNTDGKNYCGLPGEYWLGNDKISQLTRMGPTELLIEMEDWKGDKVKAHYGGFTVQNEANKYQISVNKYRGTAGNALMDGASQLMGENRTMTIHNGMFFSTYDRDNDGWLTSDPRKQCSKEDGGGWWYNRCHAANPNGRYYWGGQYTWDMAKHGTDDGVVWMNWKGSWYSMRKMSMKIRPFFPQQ
Chain of human fibrinogen (human) (P02679 other isoform, or with tags, fused parts or gaps limits assumed, chain 3 of 3, further chain): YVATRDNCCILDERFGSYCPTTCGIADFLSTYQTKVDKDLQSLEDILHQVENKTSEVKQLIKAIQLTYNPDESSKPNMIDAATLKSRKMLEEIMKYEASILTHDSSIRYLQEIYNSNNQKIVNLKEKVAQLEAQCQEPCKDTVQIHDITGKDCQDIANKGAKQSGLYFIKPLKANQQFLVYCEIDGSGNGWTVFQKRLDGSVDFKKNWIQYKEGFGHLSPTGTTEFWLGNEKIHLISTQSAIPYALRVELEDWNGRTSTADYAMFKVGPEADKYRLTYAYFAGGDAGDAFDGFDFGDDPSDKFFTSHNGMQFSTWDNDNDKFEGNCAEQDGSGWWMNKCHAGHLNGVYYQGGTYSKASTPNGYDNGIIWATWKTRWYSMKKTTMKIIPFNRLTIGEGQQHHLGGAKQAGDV

Turning to “human 15-mer C-terminal Fg γ-chain peptide (…)”, in test [1], the N is 1.29, the ΔH is -3640 and the ΔS came to 8.03.

Turning to “recombinant ClfA229-545 (S. aureus clumping factor A, N2N3 domains), 6xHis tagged (from UniProt Q53653 229-545)”, the Kd was 23 µM in test [2] and 40 µM in test [3]. In the test with human fibrinogen (human), this substance had an EC50 (read off the curve) of 0.2 µM.

In the case of “sheep (ovine) 15-mer C-terminal Fg γ-chain peptide (…)”, in test [4], the N is 16.2, the ΔH was 1340 and the ΔS came out at 20.4.

Values taken from patent US20110171285A1, “Design of Fibrinogen and Fibrinogen Derived Products with Reduced Bacterial Binding by Using Modified Sequences of Fibrinogen Chains” (priority 2009, published 2011).
